In the RNAGym collection of RNA variant scans (doi:10.7554/elife.80360):

B1: HDV Ribozyme (parent)
chain: GGCCGGCAUGGUCCCAGCCUCCUCGCUGGCGCCGGCUGGGCAACAUUCCGAGGGGACCGUCCCCUCGGUAAUGGCGAAUGGGACCCA

Variants of: B1
Experiment: self-cleavage, relative activity (ratio to wild type); higher = more cleavage; co-transcriptional

Row | Variant | self-cleavage
1 | GGCCGGCAUGGUCCCAGCCUCCUCGCUGGCGCCGGCUGCGCAACAUUCCGAGGGGAGCGUCCCCUCGGUAAUGGCGAAUGGGACCCA | 0.415
2 | GGCCCGCAUGGUCCCAGCCUCCUCGCUGGCGCCGGCUGGGCAACAUUCCGAGGGGACCGUCCUCUCGGUAAUGGCGAAUGGGACCCA | 0.0437
3 | GGCCGGCAUGGUCCCAGCCUCCUCGCUGGCGCCGGCUGGGCAACAUUCCGAGGGGACCAUCCCCUCGGUAAUGGCAAAUGGGACCCA | 1.07
4 | GGCCGGCAUGGUCCCAGCCUCCUCGCUGGCGCCGGCUGGGCAACAUUCCGGGGGGACGGUCCCCUCGGUAAUGGCGAAUGGGACCCA | 0.969
5 | GGCCGGCAUGGUCCCAGCCUCCUCGCUGGCGCCGGCAGGGCAACAUUCCGAGGGGACCGUCCCCUCGGUAUUGGCGAAUGGGACCCA | 0.394
6 | GGCCGGCAUGGUCCCAGCCUCCUUGCUGGCGCCGGCUGGGCAACAUUCCGAGGGGUCCGUCCCCUCGGUAAUGGCGAAUGGGACCCA | 0.401
7 | GGCCGGCAUGGUCCCAGCCUCCUCGCUGGCGCCGGCUGGGCAACAUUCCGAGGGGACAGUCCCCUCGGUAAUGGCGAAUGGGACCCU | 1
8 | GGCCGGCAUGGUCCCAGUCUCCUCGCUGGCGCCGGCUGGGCAACAGUCCGAGGGGACCGUCCCCUCGGUAAUGGCGAAUGGGACCCA | 0.277
9 | GGCCGGCUUGGUCCCAGCCUCCUCGCUGGCGCCGGCUGGGCAACAUUCCGAGGGGACCGUCCCCUCGGUAAUGGCGAAUGGAACCCA | 0
10 | GGCCGGCAUGGUCCCAGCCUCCUCGCUGGCGCCGGCUGAGCAACAUUCCGAGGGGACCGUCCCCUCGGUAAUGGCGAAUGGGACUCA | 0.465
11 | GGCCGGCAUGGUCCCAGCCUCCUCGCGGUCGCCGGCUGGGCAACAUUCCGAGGGGACCGUCCCCUCGGUAAUGGCGAAUGGGACCCA | 0.739
12 | GGCCUGCAUGGUCCCAGCCUCCUCGCUGGCGGCGGCUGGGCAACAUUCCGAGGGGACCGUCCCCUCGGUAAUGGCGAAUGGGACCCA | 0.196
13 | GGCCGGCAUGGUCCCAGCCUCCUCGCUGGCGCCGGCUGGGCAACAUUCCGAGGGGACCGUCCCCUCGGUAAUGACGAAUGAGACCCA | 0.213
14 | GGCCGGCAUGGUCCCAGCCUCCUCGCUGGCGCCGGCUGGGCAACAUUCCGAGGGGACCGUCCCCUCGGUAAUGACGAAUGUGACCCA | 0.12
15 | GCCCGGCAUGGUCCCAGCCUCCUCGCUGGCGCCGGCUGGGCAACAUUCCGAGGGGACCGUCCCCUCGGUAAUUGCGAAUGGGACCCA | 0.0683
16 | GGCCGGCAUGGUCCCAGCCUCCUCGCUGGCGCCGGCUGGGCAACAUUCCGAGGGGACCGUCCCCUAGGUAUUGGCGAAUGGGACCCA | 0.692

Row | Variant | self-cleavage
17 | GGCCGGCAUGGUCCCAGCCUCCUCGCUGGCGCCGGCUGGGCAACAUUCCGAGGGGUCCGUCCCCUCGGUAAUGGCGAAUGGAACCCA | 0.543
18 | GGCCGGCAUGGUCCCAGCCUCCUCGCUGGCGCCGGCUGGGCAACAGUCCGAGGGGACCGUCCCCUCGAUAAUGGCGAAUGGGACCCA | 0.608
19 | GGCCGGCAUGGUCCCAGCCUCCUCGCUGGCGCCGGCUGGGCAACACUCCGAGGGGACCGUCCUCUCGGUAAUGGCGAAUGGGACCCA | 0.671
20 | GGCCGGCAUGGUCCCAGCCUCCUCGCUGGCGCCGGCUGGUCAACAUUCCGAGCGGACCGUCCCCUCGGUAAUGGCGAAUGGGACCCA | 0.519
21 | GGCCGGCACGGUCCCAGCCUCCUCGCUGGCGGCGGCUGGGCAACAUUCCGAGGGGACCGUCCCCUCGGUAAUGGCGAAUGGGACCCA | 0
22 | GGCCGGCAUGGUCCCAGCCUCCUCGCUGGCGCUGGCUGGGCAACAUUCCGAGGGGACCGCCCCCUCGGUAAUGGCGAAUGGGACCCA | 0.773
23 | GGCCUGCAUGGUCCCAGCCUCCCCGCUGGCGCCGGCUGGGCAACAUUCCGAGGGGACCGUCCCCUCGGUAAUGGCGAAUGGGACCCA | 0.462
24 | GGCCGGCAUGGUCCCAGCCUCCUCGCUGGCGGUGGCUGGGCAACAUUCCGAGGGGACCGUCCCCUCGGUAAUGGCGAAUGGGACCCA | 0.115
25 | GGCCGGCAUGGUCCCAGCCUCCUCGCUGGCGCCGGCUGGGCAACAUUCAGAGGGGACCGUCCCCUCGGUAAUGGCGAAUGGGGCCCA | 0.546
26 | GGCCGGCAUGGUCCCAGCCUCCGCGCUGGCGCCGGCUGGGCAACAUUCCGAGGGGACCGUCCCCUCGGUAAUGGCGAAUGGGACGCA | 0.643
27 | GGCGGGCAUGGUCCCAGCCUCCUCGCUGUCGCCGGCUGGGCAACAUUCCGAGGGGACCGUCCCCUCGGUAAUGGCGAAUGGGACCCA | 0.0292
28 | GGCCGGCAUGGUCCCAGCCUCCUCGCUGGCGCCGGCUGGGCAACAUUCCGACGGGACCGUCCCCUCGGUAAUGGCGAAGGGGACCCA | 0.475
29 | GGCCGGCAUGGUCCCAGCCUCCUCGCUGGCGCCGGCUGGGCAACAUUCCGGGGGGACCGUCCCCUCGGUAAUGGCGAAUAGGACCCA | 0.376
30 | GGCCGGCAUGGUCCCAGCCUCCUCGCUGGCGCCGGCUGGGCAACAUUCCGAGGGGACCGUCCCCUCGGUAAUGGGGAAUGGGGCCCA | 0.153
31 | GGCCGGCAUGGUCCCAGCCUCCUCGCUGGCGCCGGCUGGGCAACAUUCCGAGGGGACCGUCCCCCCGGUAAUGGCGAAUGGGACGCA | 0.807
32 | GGCCGGAAUGGUCCCAGCCUCCUCGCUGGCGCCGGCUGGGCAACAUUCCGAGGGGACCGUCCCCUCGGGAAUGGCGAAUGGGACCCA | 0.751
